Experimental data as given in the DeepSol protein solubility set.

Assay: soluble on expression in E. coli; label from the status in PepcDB or PDB records

| Sequence | soluble on expression in E. coli |
| --- | --- |
| MGSDKIHHHHHHMTEIQTIRKKVEQQITSLQNETDEIAEFNQAKVLDAFQENKVSDFHFNPSTGYGYDDEGRDTLERVYASVFKTEAALVRPQIISGTHAISTVLFGILRPGDELLYITGEPYDTLEEIVGIRSEGQGSLKDFQIGYDAVPLLPNGEIDYPAVSKKISANTKMIGIQRSRGYADRPSFTIEKIKEMVTFVKNINPNIIVFVDNCYGEFVERIEPTEVGADIIAGSLIKNPGGGLAKTGGYIAGRNTLVDLCGYRLTTPGIGREAGASLYSLLEMYQGFFLAPHVTAQAIKGARFTAAMLAEFGVEADPLWDAKRTDLIQSVSFHSKDKMIAFAQAIQAASPVNAHVLPIGAYMPGYEDDVIMAAGTFIQGASLELTADGPIREPYQLYVQGGLTYEHVKIAVTRAIENSL | not soluble |
| MGKKAKLGHKTGVNKGILLTDRQRLNWLRLLRSENIGAVSFRNLIDHYKTAENALAALPELSRKGGLATSIRIATLEDAEKEMQEAEKLGIRFVGIGEPDYPTFLKVTEASPPLIAIKGNVSVFEKASVGIVGSRNASAAGKKLAAQFAHFLGNADFTIISGLARGIDSIAHQASLQTGTVAVMAGGIDHIYPPENKKLHEDIIANGGAIISEMPIGWKPRAIDFPRRNRIIAGLSLGLLVVEAALQSGSLITARQAAEMGRLTFAIPGSPLDPRSVGTNNLLKDGALLTTHPSDIIETLTPLIPTPTNHQLNFFEELPSLQLEKDCFNSSDKKTKITSFVGDERERRAVLSALSTTPIDLDTLSTNSGVSLSNLYLLLVELELAGKLIRHSGGYVSLSNFDLLQEPPHY | not soluble |
| MLGIYVLSVDRQSPFAQALKVGDTVTEVNGHHFNSMTGYQRYIQRQKVGQRATITYQRNGKTHHVTAKLMRLPTKKAGIGITLEHHHHHH | not soluble |
| MRILAIGDIIGRPGRKALRELLPQLKEEVAYDVVIANVENSAGGFGITKKVYEELLEIGIDVMTSGNHIWDKKEVYNFIGEAYNLLRPANYPEGVPGRGYGIFKKNGVEFAVINLMGKVFMDCNLENPFKTFDRIYDELKDKVKIIVVDFHAEATSEKWAFGIYVDGRASFVYGTHTHVPTADEFILKKGTGYVSDIGMTGVWYSAIGMKPKEAIERFLLSLPRRFEVEDKGEIMFNAVLVDIDEETGKTKSIERIKRFL | soluble |
| LDRHLQPLLLELATLTRAENSGVAPKVSDERKELDRLLAEQEGNRRALTAANVAVDDMELEIRRVQEDERKLRRREAEGKRQLAAEVDEEKRRDIKHDIYAAKSRIADLMSELQEAHNEIHALRNNRDLNQQRVSDTEARIDKARAAVDALGEDTTAADRHERIETLRLELPSDVVAQFDEQRDENEVGVASFNNRSCGGCFIILPPADISIIRRAPMNVLPQCPDCGSYLVRQG | not soluble |
| MKLIITEDYQEMSRVAAHHLLGYMSKTRRVNLAITAGSTPKGMYEYLTTLVKGKPWYDNCYFYNFDEIPFRGKEGEGVTITNLRNLFFTPAGIKEENIQKLTIDNYREHDQKLAREGGLDLVVLGLGADGHFCGNLPNTTHFHEQTVEFPIQGEMVDIVAHGELGGDFSLVPDSYVTMGPKSIMAAKNLLIIVSGAGKAQALKNVLQGPVTEDVPASVLQLHPSLMVIADKAAAAELAFG | soluble |
| MALVRPFPIVQVVGFQNSGKTTFIERILEKASEQGVHLGCLKHHGHGGEPQTLTEGKDTDRYKAAGADVTAVEGAGVLQLTARRNWDLARLIELYQFLETDCLLIEGFKKAPYPKVVILSEKEDLEALQAVNIIAIIYRKKEHMTEHQGLPVFHADDPVAVDFVLSQLKGESA | soluble |
| SKEGSVAPKERINIKYIPATGDAQAEVELPLKTLVVGDFKGHAEQTPLEERATVTVDKNNFEAVMRESELKITATVKNKLTDDENAELPVELNFKSLADFAPDAVASQVPELKKLIELREALVALKGPLGNIPAFRERLQSLLNSEESREKLLAELNLL | not soluble |
| SAGTGLVAGEVVVDALPYFDQGYEAPGVREAAAALVEEETRRYRPTKNYLSYLTAPDYSAFETDIMRNEFERLAARQPIELLSMKRYELPAPSSGQKNDITAWQECVNNSMAQLEHQAVRIENLELMSQHGCNAWKVYNENLVHMIEHAQKELQKLRKHIQDLNWQRKNMQLTAGSKLREMESNWVSLVSKNYEIERTIVQLENEIYQIKQQHGEANKENIRQDF | soluble |
| MGSDKIHHHHHHMQQSTPYLSFRGIGKTFPGVKALTDISFDCYAGQVHALMGENGAGKSTLLKILSGNYAPTTGSVVINGQEMSFSDTTAALNAGVAIIYQELHLVPEMTVAENIYLGQLPHKGGIVNRSLLNYEAGLQLKHLGMDIDPDTPLKYLSIGQWQMVEIAKALARNAKIIAFDEPTSSLSAREIDNLFRVIRELRKEGRVILYVSHRMEEIFALSDAITVFKDGRYVKTFTDMQQVDHDALVQAMVGRDIGDIYGWQPRSYGEERLRLDAVKAPGVRTPISLAVRSGEIVGLFGLVGAGRSELMKGMFGGTQITAGQVYIDQQPIDIRKPSHAIAAGMMLCPEDRKAEGIIPVHSVRDNINISARRKHVLGGCVINNGWEENNADHHIRSLNIKTPGAEQLIMNLSGGNQQKAILGRWLSEEMKVILLDEPTRGIDVGAKHEIYNVIYALAAQGVAVLFASSDLPEVLGVADRIVVMREGEIAGELLHEQADERQALSLAMPKVSQAVA | not soluble |
| MGSDKIHHHHHHMDEALRTYIRVVELQSFTKAAEELHISQPAVSLQLKKLEEIYETELIYRQAKKFILTATGEILYHRAKQLEGLYKQVEDEISLYHHHLKGRLRIGASFTIGEYFLPEVIAKFHALYPDITIELIIENTAKIADKVELLQVDTGLIEGQVSKKDLEISAFSDDEMCIVGRADGSLTEIEQGATWIAREEGSGTREYLDHVLSTNGWNVAEKVVAWSNMAVKQMVLEGMGYTVISKCVVQTEITSGKLQTFNEAGSLMRKFSVLKNRQRLENRIAETFLTFLKENQ | not soluble |
| MSLKALINGTIYTSFNPLKKVSGLVISHGKVIYAGDSEVAKKIVELSGGEIVDLKGKYVMPAFFDSHLHLDELGMSLEMVDLRGAKSIEELIQRLKRGKGRIIFGFGWDQDELGEWPTRKELNAIDKPVFIYRKCFHVAVANDKMLELLNLTPSKDFDEDTGIIKEKSLEEARKVINERVLTVEDYVYYIKRAQEHLLDLGVKSVSFMSVNEKALRALFYLEREGKLSINVFAYVTPEVLDKLESIGLGRFQGNRLTIAGVKLFTDGSLGARTALLSKPYSDDPSTSGQLVMEREELIRITEKARSLGLDVAIHAIGDKALDVALDVFETTGFPGRIEHASLVRDDQLERVKNLKVRLSVQPHFIISDWWIVERVGEERVKWVYRFKDLMKVAELGFSTDSPIEPADPWLTVDAAVNRGKGKVKLYELTKDQALDIKDALHSYTYGSARVSLASDIGKLEPGFKAEYIILDRDPLVVKEGHHHHHH | soluble |
| HETLTSPPLREGRYIMAVTGCGPVEGVKEDGAFAFRGIPYAKPPVDRLRWKPAELIDDINMCWNDTLQTHNSSVVCTQRLGNGTTVGDEDCLYLDVVTPHVRYNNPLPVVVLIGAESLAGPSPGILRPSARYSRSHDVIFVRPNFRLGVFGFLALDALTKEAHPPTSGNYALTDIIAVLNWIKLNIVHFGGDPQSVTLLGHRAGATLVTLLVNSQKVKGLYTRAWASSGSAILPGKPLSESGKQNEQLMATLECADIQCLREASSERLWAATPDTWLHFPVDLPQPQEANASGSRHEWLVLDGDVVFEHPSDTWKREQANDKPVLVMGATAHEAHTEKLRELHANWTREEVRAYLENSQIGALGLTDEVIEKYNASSYASLVSIISDIRSVCPLLTNARQQPSVPFYVVTQGEGPDQLATVDADVQAILGRYEPHTVEQRRFVSAMQQLFYYYVSHGTVQSFVQNRRVINVGQDAQPEEDYLPCNYWISKDIVPRYARVD | soluble |
| MAICESGALPSHVGALSYSGGAASSFFGRRNADGLNDKWLALRDAFRAAGGDLLAIEDARSAALDFVIHVNAHRLRHDVPAFVILAESEFIHPPNVDWRMLQQYKGIFTWMPDLVRRGIGTEICLAHPLGAGVVDGYQERPQLLVMIASNKALPVWRPAVDLYRERVRAIRWFEKHAPQAFALYGHDWDKSPRLPTPLGGIVHGVEFVLPWRLQWFPSWKGVIPSKREVLRHARFSLCYENVRGLRGYITEKIFDAFCAGNVPVYWGAEDITDYIPADCFIDRRAFGDYADLYRYLTSMPETRYIQYQQAICDFLVSPAAKRFSSEIFATTIVGKVLDTLGRRDE | not soluble |
| EQPKCNVRVVEMTYTTVGVVGEATRASGVVLVPDGPQCPGPYPVLGWGRDGQTFRRSEQAKSIISAKGDDPLVTRLASQGYVVVGTDYLGLGGSNYPYHPYLHANSEASALIDALRASRTVLQHLNTPLSNKLMLSGFSQGGHTAMATQREIEAHLSNE | not soluble |
| AGKTLYDKLWDMHLVKQRDDGSALIYIDRHILHEVTSPQAFEGLRLAGRKPWRIDANIATPDHNVPTTRTERKGGIAAIADEVSRLQVQTLDENCDDFGITEFKMNDVRQGIVHVVGPEQGATLPGMTVVCGDSHTSTHGAFGALAHGIGTSEVEHVLATQCLVAKKMKN | not soluble |
| MLPFFKELQTCTEMLEKNPQDATALFQKAVLLYKARRFEAALQLIEQVLEIVPDDFRVWYNRGVVLSEMGRLEDALAAYDRVIELEPVFEMAWDNKGVVLARLGRFEEALETYEKVLLRNPKYAEAWAGKGSVLSALDRKEEALEAYLSALKIRPDYLEALKSVGSLFSRLGRYEEALAAYDTALQAAPEAPELWAGRGLVLSELDRQEEALQSCSRALELKPGFAPALEVKVKILSEIGRQKARASQLEHHHHHH | soluble |
| MPGHTSWDATFLEPAPPLPHPSECGQPCVSGQSQMFQHRTTNAQGPPPNRPMPRPPAGMPMMTSSHEHDYTNDYEDPEEMARSRGEGFSNHLLIKTTPPPQPHPNFNSYEMSMSQQRRSQQHQQPMAPPLSDCWGSGVHDSGVLHKNADGAYYIPSGSCKF | not soluble |
| GSVRPVVGEIAANSIAAEAQIAPGTELKAVDGIETPDWDAVRLQMVDKIGDESTTITVAPFGSDQRRDVKLDLRHWAFEPDKEDPVSSLGIRPRGPQ | soluble |
| YDRRVHRFRKNWERIIPTHSKIQYAGNMGLLSFGTGWDYGKRNQWETDLLLGFIPKYSSKKAKVTMTLKQNYMPWSINLGKGFSTEPLSCGLYLNTVFGNQFWVSEPERYPKGYYGFSSKVRIHVFMGQRLTYDIDPNRRFLAKSVTFFYEISTCDLYLISGVTNSYLRPRDYLSLSFGLKFQWL | not soluble |
| MSRPRAKLTGNFPGCPVESALSFLDGKWKGVILYHLINEGTLRFNELRRHIPSVTQRMLTKQLRELEEAGLISRTVFPVVPPRVDYALTPLGETMRPVISALKSWGDAHVVCKNGEKYTRAPTVAEKAA | not soluble |
| MEATNKMKVEVWSDIMCPFCYIGKRNYEAGLKQFADSNNIEIIWKSFQLDPNIPQDTAVTENVYQYLAERKGMSYEQSVQMHDSVVATAKKAGLDYNFDKAVIANSFNAHRMIQLAKTKDLGDAAEERLFYAYFTEGKNVGNSYVLIELGKDIGLTEAEVQTALTDDTYAYKVRQDVEEAQHLGVRGVPFFVFDRKYAVSGAQPPQAFLETLEKSFSEWRKEHPASPFEVSEGPSCSVDGCD | not soluble |
| MAHHHHHHMRFLKTLFSLNCLASVGFYKKFACKNLFFENSFIRKDLHTYFIDKRKYFHLNKKDICTNTIIIPFYKDNYSYIFYDDKEEGIVVDPADYNIINDISKKENIKIKHVLCTHKHSDHNNGNQYYYEKNINVYGIKEYDNKYINQDISNLTHFQINNFKINIFLSNFHSKNQVSYLIENDNNKSKKNIFFTGDFLFISGIGKNFEQDNEDLYNSINKLKLLDKQNIYIFCGHEYTLDNLKFALTVDSTNKNLLSFYDHVVNSNKNYPTVPTLLEHEYLYNPFLRCDQNDVRKSIDLYAKKKNIKIQQESDYIVILRLMKDNFKAS | not soluble |
